From patent US9186390B2, “Methods and uses of TIE2 binding and/or activating agents” (Sunnybrook Health Sciences Center, priority 2010, dated 2015)

Tested on: AT derm mice (pTek-tTA:pTetOS-Tek)
Assay: Enforced expression of Ang1 or Ang2 in AT derm mice (triple transgenic)
Format: in vivo
Details: for atopic dermatitis phenotype (erythema, ear micro-haemorrhages, tail scaly plaque): transgenic overexpression in the vasculature of AT derm mice
From the text: Briefly, construction of the driver transgene, pTek-tTA, and the responder transgenes, pTetOS-Tek, pTetos-Ang1, and pTetos-Ang2 have been described previously. All transgenic lines were maintained and genotyped as previously described (Voskas et al. (2005) Am. J. Pathol. 166(3):843-855, Ward et al. (2004) Am. J. Pathol. 165(3):889-899, Bureau et al. (2006) Am. J. Physiol. Heart Circ. Physiol. 291(2):H948-965). Males were housed with a single female for 14 to 20 days and then separated into individual cages. CD1 mice (an outbred mouse line) were maintained in a barrier facility. All adult mice used in these studies were 2 to 6 months old.
The present inventors have previously shown that enforced overexpression of the Tie2 receptor in the vasculature results in an inflammatory skin phenotype in mice (FIG. 3A) that is consistent with many hallmarks of human atopic dermatitis/psoriasis (Voskas et al. (2005) Am. J. Pathol. 166(3), 843-855, Voskas et al. (2009) J. Leukoc. Biol. 84(1), 59-67). […] Using common mouse transgenic approaches, a system was devised in which the impact of enforced expression of Ang1 or Ang2 could be assessed in this mouse model of inflammatory skin disease. This is the first such system where the implications of Ang1 or Ang2 expression can be simultaneously addressed in a single pathological state. […] This was marked by a gross reduction in snout, conjunctiva, ear and paw erythema (FIGS. 3C-E).

Molecule	atopic dermatitis phenotype (erythema, ear micro-haemorrhages, tail scaly plaque)	epidermal hyperplasia and dermal leukocyte infiltration (histology) (triple transgenic mice)
Ang2: Angiopoietin 2, natural antagonist of Ang1, overexpressed from the pTetOS-Ang2 transgene	exacerbated all of the noted phenotypic hallmarks	
Ang1: Angiopoietin 1, Tie2 ligand, overexpressed in the vasculature from the pTetOS-Ang1 transgene (protein, UniProt Q15389 16-498, looked up) Angiopoietin-1: HIGCSNQRRSPENSGRRYNRIQHGQCAYTFILPEHDGNCRESTTDQYNTNALQRDAPHVEPDFSSQKLQHLEHVMENYTQWLQKLENYIVENMKSEMAQIQQNAVQNHTATMLEIGTSLLSQTAEQTRKLTDVETQVLNQTSRLEIQLLENSLSTYKLEKQLLQQTNEILKIHEKNSLLEHKILEMEGKHKEELDTLKEEKENLQGLVTRQTYIIQELEKQLNRATTNNSVLQKQQLELMDTVHNLVNLCTKEGVLLKGGKREEEKPFRDCADVYQAGFNKSGIYTIYINNMPEPKKVFCNMDVNGGGWTVIQHREDGSLDFQRGWKEYKMGFGNPSGEYWLGNEFIFAITSQRQYMLRIELMDWEGNRAYSQYDRFHIGNEKQNYRLYLKGHTGTAGKQSSLILHGADFSTKDADNDNCMCKCALMLTGGWWFDACGPSNLNGMFYTAGQNHGKLNGIKWHYFKGPSYSLRSTTMMIRPLDF	dramatic amelioration of disease	resolution of epidermal hyperplasia
